For the assay, the target named is CD44 existing on the cell surface of CTLs (human) (UniProt P16070). Briefly: cell-based or functional assay.
Sequence of UniProt P16070 (P16070 21-742): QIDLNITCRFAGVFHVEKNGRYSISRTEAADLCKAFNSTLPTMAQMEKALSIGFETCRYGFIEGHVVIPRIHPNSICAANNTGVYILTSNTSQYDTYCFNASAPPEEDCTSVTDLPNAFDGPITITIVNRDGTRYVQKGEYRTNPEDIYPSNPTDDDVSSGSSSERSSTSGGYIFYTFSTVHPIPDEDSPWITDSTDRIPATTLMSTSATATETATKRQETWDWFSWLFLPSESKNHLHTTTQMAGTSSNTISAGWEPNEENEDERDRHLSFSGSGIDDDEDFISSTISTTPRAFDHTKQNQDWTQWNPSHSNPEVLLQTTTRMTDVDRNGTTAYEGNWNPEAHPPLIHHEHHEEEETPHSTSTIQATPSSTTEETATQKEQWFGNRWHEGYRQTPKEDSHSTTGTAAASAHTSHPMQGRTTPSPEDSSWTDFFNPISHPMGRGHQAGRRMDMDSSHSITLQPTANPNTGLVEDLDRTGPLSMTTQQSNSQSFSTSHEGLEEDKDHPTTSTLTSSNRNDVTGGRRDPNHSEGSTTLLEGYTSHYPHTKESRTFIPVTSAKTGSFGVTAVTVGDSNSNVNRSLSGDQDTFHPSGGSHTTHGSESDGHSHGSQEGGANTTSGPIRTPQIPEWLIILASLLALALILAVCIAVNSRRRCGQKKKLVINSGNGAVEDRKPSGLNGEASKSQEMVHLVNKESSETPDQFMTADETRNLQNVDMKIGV

“anti-CD44 antibody (hyaluronic acid-bound Non-blocking antibody; HA Non-blocking Anti-CD44 Antibody), monoclonal, manufactured by Ancell”: the Cytotoxic Activity (%), E/T Ratio 3, peptide pulse +, after expansion with antibody came to 32.4%; the Cytotoxic Activity (%), E/T Ratio 3, peptide pulse -, after expansion with antibody stood at 10.3%; the Cytotoxic Activity (%), E/T Ratio 10, peptide pulse +, after expansion with antibody was 60.1%; the Cytotoxic Activity (%), E/T Ratio 10, peptide pulse -, after expansion with antibody is 14.2%. In addition, the Cytotoxic Activity (%), E/T Ratio 30, peptide pulse +, after expansion with antibody turned out to be 105% and the Cytotoxic Activity (%), E/T Ratio 30, peptide pulse -, after expansion with antibody was 21.2%.
